# Data reported in paper PMC7864943, “Structural elements in the flexible tail of the co-chaperone p23 coordinate client binding and progression of the Hsp90 chaperone cycle” (Nature Communications, 2021).
# B1: yeast p23^Δ88 (domain or fragment, UniProt P28707 1-128, looked up)
# chain: MSDKVINPQVAWAQRSSTTDPERNYVLITVSIADCDAPELTIKPSYIELKAQSKPHVGDENVHHYQLHIDLYKEIIPEKTMHKVANGQHYFLKLYKKDLESEYWPRLTKEKVKYPYIKTDFDKWVDED
# notes: p23/Sba1, yeast, C-terminal deletion mutant Δ88; source: E. coli BL-21 DE3, purified
# B2: yeast p23^W124A (natural protein, UniProt P28707 1-216, looked up)
# chain: MSDKVINPQVAWAQRSSTTDPERNYVLITVSIADCDAPELTIKPSYIELKAQSKPHVGDENVHHYQLHIDLYKEIIPEKTMHKVANGQHYFLKLYKKDLESEYWPRLTKEKVKYPYIKTDFDKAVDEDEQDEVEAEGNDAAQGMDFSQMMGGAGGAGGAGGMDFSQMMGGAGGAGSPDMAQLQQLLAQSGGNLDMGDFKENDEEDEEEEIEPEVKA
# notes: p23/Sba1, yeast, point mutant of the wild type (aa 1-216); source: E. coli BL-21 DE3, purified
# B3: human p23 (natural protein, UniProt Q15185 1-160, looked up)
# chain: MQPASAKWYDRRDYVFIEFCVEDSKDVNVNFEKSKLTFSCLGGSDNFKHLNEIDLFHCIDPNDSKHKRTDRSILCCLRKGESGQSWPRLTKERAKLNWLSVDFNNWKDWEDDSDEDMSNFDRFSEMMNNMGGDEDVDLPEVDGADDDSQDSDDEKMPDLE
# notes: p23, human; helical stretch at residues 117-127 of the tail; 15N-labelled; also called p23 (human); source: E. coli BL-21 DE3, purified (the methods speak of Hsp90 and p23 in general)
# B4: yeast p23^Δ91 (domain or fragment, UniProt P28707 1-125, looked up)
# chain: MSDKVINPQVAWAQRSSTTDPERNYVLITVSIADCDAPELTIKPSYIELKAQSKPHVGDENVHHYQLHIDLYKEIIPEKTMHKVANGQHYFLKLYKKDLESEYWPRLTKEKVKYPYIKTDFDKWV
# notes: p23/Sba1, yeast, C-terminal deletion mutant Δ91; source: E. coli BL-21 DE3, purified
# Experiments:
# Settings in all cases: both partners purified
# [1] = target: T1, yeast Hsp90 (Hsp82), full length (yeast, UniProt P02829 1-709); experiment: ITC; 20 µM Hsp90 in the cell, p23^WT (135 µM) or mutants (up to 360 µM) in the syringe; 2 mM AMP-PNP; 40 mM Hepes, 150 mM KCl, 5 mM MgCl2, 1 mM DTT, pH 7.5; 30 °C
# T1 construct: Hsp90 (Hsp82), yeast, full-length protein; Isotope-labelled (methyl-labelled, deuterated) in some NMR experiments; also called Hsp90 FL; Hsp90 dimer
# T1 sequence (P02829 whole entry): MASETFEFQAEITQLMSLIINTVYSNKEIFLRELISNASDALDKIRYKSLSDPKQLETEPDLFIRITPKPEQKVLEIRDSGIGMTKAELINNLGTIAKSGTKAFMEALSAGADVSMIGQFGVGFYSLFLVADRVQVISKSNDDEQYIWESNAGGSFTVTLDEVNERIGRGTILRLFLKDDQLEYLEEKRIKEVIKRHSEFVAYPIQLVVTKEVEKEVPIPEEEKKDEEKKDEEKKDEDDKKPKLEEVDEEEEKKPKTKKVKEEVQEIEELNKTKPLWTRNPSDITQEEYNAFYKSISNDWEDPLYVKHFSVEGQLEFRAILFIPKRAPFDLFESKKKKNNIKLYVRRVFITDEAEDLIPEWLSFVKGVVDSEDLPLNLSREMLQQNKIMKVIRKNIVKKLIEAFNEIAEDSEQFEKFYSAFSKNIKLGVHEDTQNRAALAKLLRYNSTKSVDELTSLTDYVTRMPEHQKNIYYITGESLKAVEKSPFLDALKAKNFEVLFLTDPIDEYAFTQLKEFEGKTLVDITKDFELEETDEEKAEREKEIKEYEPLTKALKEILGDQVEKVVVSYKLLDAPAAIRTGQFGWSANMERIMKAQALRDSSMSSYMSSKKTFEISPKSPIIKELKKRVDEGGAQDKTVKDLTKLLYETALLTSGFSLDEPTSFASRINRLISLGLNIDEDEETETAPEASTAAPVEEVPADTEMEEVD
# [2] = target: T1, yeast Hsp90 (Hsp82), full length; experiment: ATPase inhibition assay; apparent Ki; ATP-regenerating system, 30 °C; 3 µM yeast Hsp90 (Hsp82) with rising concentrations of p23 or mutants; 40 mM Hepes, 150 mM KCl, 5 mM MgCl2, 1 mM DTT, pH 7.5; 2 mM ATP
# [3] = target: T2, human Hsp90β, full length (human, UniProt P08238 1-724); experiment: NMR titration; 1H-15N HSQC of 15N-labeled p23 with unlabeled full-length Hsp90/AMP-PNP or GR-LBDm alone; peak intensity ratios; 25 mM Tris, 200 mM NaCl, 5 mM DTT, 0.5 mM dexamethasone, pH 7; 30 °C
# T2 construct: also called Hsp90 FL (human); source: E. coli BL-21 DE3, purified (the methods speak of Hsp90 and p23 in general)
# T2 sequence (P08238 whole entry): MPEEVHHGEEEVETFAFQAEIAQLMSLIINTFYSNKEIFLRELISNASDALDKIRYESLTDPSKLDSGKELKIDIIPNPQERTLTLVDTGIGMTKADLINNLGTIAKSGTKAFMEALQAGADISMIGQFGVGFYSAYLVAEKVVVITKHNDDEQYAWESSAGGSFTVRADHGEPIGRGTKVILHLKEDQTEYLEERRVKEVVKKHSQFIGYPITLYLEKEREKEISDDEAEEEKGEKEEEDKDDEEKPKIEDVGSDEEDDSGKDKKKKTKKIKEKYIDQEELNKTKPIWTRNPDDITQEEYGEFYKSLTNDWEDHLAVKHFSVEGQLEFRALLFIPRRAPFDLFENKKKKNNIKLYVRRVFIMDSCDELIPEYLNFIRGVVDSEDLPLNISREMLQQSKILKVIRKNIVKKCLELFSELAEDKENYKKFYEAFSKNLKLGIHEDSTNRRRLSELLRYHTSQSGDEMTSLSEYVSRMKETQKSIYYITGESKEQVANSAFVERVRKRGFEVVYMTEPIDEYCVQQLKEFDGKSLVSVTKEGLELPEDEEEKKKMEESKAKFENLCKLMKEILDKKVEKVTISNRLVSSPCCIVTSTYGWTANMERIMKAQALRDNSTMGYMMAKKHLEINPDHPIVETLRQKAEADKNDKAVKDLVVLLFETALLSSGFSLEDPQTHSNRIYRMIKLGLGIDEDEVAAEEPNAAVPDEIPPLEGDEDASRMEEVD
Binder,Kd [1],Ki [2],binding result [3]
B1,2300 nM,2200 nM,–
B2,1300 nM,2600 nM,–
B3,–,–,binds
B4,–,10800 nM,–
